This passage reports Kd, koff and kon results from paper PMC13216289 (NPJ Vaccines, 2026).

Holding throughout (test): BLI
What all share (settings): both partners purified

Assay [1] has as its target T1, FMDV O1/Manisa/TUR/69 virus-like particle, VP2 93C stabilised (Foot-and-mouth disease virus …, UniProt Q6PMW3, stabilised).
T1 construct: copies: 60 + 60 + 60 + 60

For assay [2], the target named is T2, FMDV A22/IRQ/24/64 virus-like particle, VP2 93C stabilised (FMDV serotype A, A22/IRQ/24/64, stabilised).
T2 construct: copies: 60 + 60 + 60 + 60

Assay [3] addresses T1, FMDV O1/Manisa/TUR/69 virus-like …. The source holds these as a separate data set.
Assay [4] deals with T2, FMDV A22/IRQ/24/64 virus-like particle, …. This is another data set of the same source.

B1: Ab17, recombinant cattle IgG1/lambda antibody (antibody, V domains shown)
VH: QVQLRESGPSSLKPSQTLSLTCAVSGFSLSTYAVGWVRQAPGKALEWVGDITSSGDTFYNPALKSRFSITKDNSKNQVSLSVGSVTPEDTATFYCTRLTCGDDCSTAWHNFDAWGQGLLVTVSS
VL: SYELTQPTSVSVALGQTAKITCSGDLLDVQYTQWYQQKPGQGPVRVIYKDSERPSGISDRFSGSSSGKTATLIISGAQTEDEADYYCQSTDSSQYGIFGRGTTLTVL
notes: copies: 2 + 2
One may read the Kd as the concentration at which binding is half-saturated. Lower therefore signals higher affinity. As usually defined, the koff is the first-order rate constant of dissociation. As usually defined, the kon is the rate constant with which the complex forms. A higher kon goes with faster complex formation. On to B1, for which, in assay [1], the Kd was determined as 0.021 nM, the off-rate (koff) is 7.96e-06 s⁻¹ and the kon was 303000 M⁻¹ s⁻¹. In assay [2], this molecule gave a Kd of 0.246 nM, a koff of 0.000164 s⁻¹ and an on-rate (kon) of 685000 M⁻¹ s⁻¹.

B2: Fab17, recombinant cattle Fab of Ab17 (Fab, V domains shown)
VH: QVQLRESGPSSLKPSQTLSLTCAVSGFSLSTYAVGWVRQAPGKALEWVGDITSSGDTFYNPALKSRFSITKDNSKNQVSLSVGSVTPEDTATFYCTRLTCGDDCSTAWHNFDAWGQGLLVTVSS
VL: SYELTQPTSVSVALGQTAKITCSGDLLDVQYTQWYQQKPGQGPVRVIYKDSERPSGISDRFSGSSSGKTATLIISGAQTEDEADYYCQSTDSSQYGIFGRGTTLTVL
Regarding B2, in assay [3], the dissociation constant Kd was determined as 5.93 nM, the koff was 0.0117 s⁻¹ and the kon stood at 1.19e+06 M⁻¹ s⁻¹. In assay [4], this molecule registered a Kd of 19.6 nM, a koff of 0.0298 s⁻¹ and a kon of 1.52e+06 M⁻¹ s⁻¹.

B3: Ab49, recombinant cattle IgG1/lambda antibody (antibody, V domains shown)
VH: QVQLRESGPSLVKPSQTLSLTCTVSGFSLTNYAVGWVRQAPGKAIQSLSIISTTGDTYYNPALKSRLSITKDNSKSQVSLSVSSVAPEDTATYYCVKFCGNADSAGHGWGCDYGDNENWGQGLLVTVSS
VL: SYELTQPTSVSVALGQTAKITCSGDLLDEQYTQWYQQKPGQGPVRVIYKDSERPSGISDRFSGSSSGKTATLTISGAQTEDEADYYCQSFYSSTDPVFGSGTTLTVL
notes: copies: 2 + 2
In assay [1], B3 gave a Kd of 0.156 nM, a koff of 4.9e-05 s⁻¹ and a kon of 257000 M⁻¹ s⁻¹. In assay [2], this molecule had a dissociation constant (Kd) of 0.114 nM, an off-rate (koff) of 3.61e-05 s⁻¹ and a kon of 389000 M⁻¹ s⁻¹.

B4: Fab49, recombinant cattle Fab of Ab49 (Fab, V domains shown)
VH: QVQLRESGPSLVKPSQTLSLTCTVSGFSLTNYAVGWVRQAPGKAIQSLSIISTTGDTYYNPALKSRLSITKDNSKSQVSLSVSSVAPEDTATYYCVKFCGNADSAGHGWGCDYGDNENWGQGLLVTVSS
VL: SYELTQPTSVSVALGQTAKITCSGDLLDEQYTQWYQQKPGQGPVRVIYKDSERPSGISDRFSGSSSGKTATLTISGAQTEDEADYYCQSFYSSTDPVFGSGTTLTVL
In assay [3], B4 gave an equilibrium dissociation constant (Kd) of 6.37 nM, a koff of 0.0029 s⁻¹ and a kon of 553000 M⁻¹ s⁻¹. Besides, in assay [4], the Kd was found to be 4.44 nM, the koff amounted to 0.00349 s⁻¹ and the kon stood at 749000 M⁻¹ s⁻¹.

B5: Ab34, recombinant cattle IgG1/lambda antibody (antibody, V domains shown)
VH: QVQLRESGPSLVKPSQTLSLTCTVSGFSLTDVHVGWVRQTPGKALEWVGVICNRGAIGYNPALESRLSITEDNSKSQVSLSLSSVTTADTATYYCASSCRTEGDVGGDCDSDHFFCAWGQGLLVTVSS
VL: SYELTQPTSVSVALGQTAKITCSGDLLDRQYAQWYQQKPGQGPVRVIYKDSERPSGISDRFSGSSSGKTATLTVSGAQTEDEADYYCHSADSSHYPVFGSGSTLTVL
notes: copies: 2 + 2
In the case of B5, the Kd came to 0.00904 nM in assay [1] and 0.0093 nM in assay [2].

B6: Fab34, recombinant cattle Fab of Ab34 (Fab, V domains shown)
VH: QVQLRESGPSLVKPSQTLSLTCTVSGFSLTDVHVGWVRQTPGKALEWVGVICNRGAIGYNPALESRLSITEDNSKSQVSLSLSSVTTADTATYYCASSCRTEGDVGGDCDSDHFFCAWGQGLLVTVSS
VL: SYELTQPTSVSVALGQTAKITCSGDLLDRQYAQWYQQKPGQGPVRVIYKDSERPSGISDRFSGSSSGKTATLTVSGAQTEDEADYYCHSADSSHYPVFGSGSTLTVL
Take B6: the Kd came to 12.3 nM in assay [3] and 9.9 nM in assay [4].
